Results: patent US20080311122A1, “Antagonists of Hmgb1 and/or Rage and Methods of Use Thereof” (Medimmune, LLC, priority 2005, published 2008)
“Also recorded” adds a separate entry of the source.

B1: E11: human anti-HMG1 antibody, recognizes HMG1 A-Box; VL/VH aa SEQ ID NO: 24/26 (antibody, listed as Homo sapiens, V domains shown)
VH: EVQLLESGGGLVQPGGSLRLSCAASGFTFSRYQMNWVRQAPGKGLEWVSSISPSGGHTHYADSVKGRFTISRDNSKNTLYLQMNSLRAEDTAVYYCAKDGRQGKISTVDHWGQGTLVTVSS
VL: AQDIQMTQSPGTLSLSPGERATLSCRASQSVRSNFLAWYQQKPGQAPRLLIYGASRRASGIPDRFSGSGFGADFTLSISRLEPEDFAVYYCQQYGSSPNTFGQGSRVEIK
B2: G9: human anti-HMG1 antibody; VL/VH aa SEQ ID NO: 34/36 (antibody, listed as Homo sapiens, V domains shown)
VH: EVQLLESGGGLVQPGGSLRLSCAASGFTFSSYDMFWVRQAPGKGLEWVSRISPSGGYTYYADSVKGRFTISRDNSKNTLYLQMNSLRAEDTAVYYCARLRYFDSRGYAFDIWGQGTMVTVSS
VL: AQDIQMTQSPGTLSLSPGERATLSCRASQSVRSSYLAWYQQKPGQAPRLLIYGASTRATGIPDRFSGSGSGTDFTLTISRLEPEDFAVYYCQQYGTSRWTFGQGTKVEIK
B3: S16: human anti-HMG1 antibody, ATCC PTA-6259; VL/VH aa SEQ ID NO: 13/15 (antibody, listed as Homo sapiens, V domains shown)
VH: EVQLLESGGGLVQPGGSLRLSCAASGFTFSWYSMLWVRQAPGKGLEWVSYISPSGGFTNYADSVKGRFTISRDNSKNTLYLQMNSLRAEDTAVYYCARWDYNSGWYYDHWGQGTLVTVSS
VL: AQDIQMTQSPDTLSLSPGERATLSCRASQSVNSRNLAWYQQKPGQAPRLLIYGASTRATGIPDRFSGSVSGTEFTLTISSLQPDDFATYYCQQYNSYFTFGQGTKLEIK
B4: S17: human anti-HMG1 antibody; VL/VH aa SEQ ID NO: 70/72 (antibody, listed as Homo sapiens, V domains shown)
VH: EVQLLESGGGLVQPGGSLRLSCAASGFTFSYYDMHWVRQAPGKGLEWVSRISPSGGYTWYADSVKGRFTISRDNSKNTLYLQMNSLRAEDTAVYYCTRGRYTSGWHEYFDPWGQGTLVTVSS
VL: AQDIQMTQSPSSLSASVGDRVTITCRASQSIGTYLNWYQQKPGTAPKVLIYAASSLQSGVPSRFSGSGSGTDFTLTISSLQPEDFSTYYCQQSYNTPRTFGQGTKLEIK
B5: G2: human anti-HMG1 IgG1 from Fab phage display library; VL/VH aa SEQ ID NO: 30/32 (antibody, listed as Homo sapiens, V domains shown)
VH: EVQLLESGGGLVQPGGSLRLSCAASGFTFSWYKMQWVRQAPGKGLEWVSGISPSGGSTAYADSVKGRFTISRDNSKNTLYLQMNSLRAEDTAVYYCAKMGLFNTGNSYVDYWGQGTLVTVSS
VL: AQSELTQPPSVSEAPGQRVTISCSGSTSNIGNNAVIWYQQLPGKAPKLLIYYDDLLPSGVSDRFSGSKSGTSGSLAISGLQSEDEADYYCASWDDNLNGPLFGGGTKLTVL

Columns and labels:
HMG1 peptides = assay: HMG1 B Box and peptide mapping ELISA; type: binding; settings: overlapping HMGB1 peptides
Experimental: HMG1 B Box and Peptide Mapping: Individual wells of a 96-well immunoplate (EIA/RIA plate, High binding, Costar) were coated with HMG1 B Box peptide amino acids 91-169 (FIG. 5A) or amino acids 150-183 (FIG. 5B) at 10 μg/ml in PBS at 4° C. overnight. The plate was then blocked with 4% milk powder dissolved in PBS at 37° C. for 1 hour. The blocking solution was removed and replaced with human anti-HMG1 antibodies at various concentrations (see FIGS. 5A-B). The plate was then washed (ELX-405 Plate washer, BIO-TEK) and secondary antibody (anti-human IgG-HRP, PIERCE) was added at a final concentration of 1:125,000 at 37° C. for 1 hour. HRP activity was detected with Sureblue HRP substrate (KPL). Plates were read at 450 nm using a Kinetic Microplate Reader (Molecular Devices). To obtain more detailed peptide mapping information, similar ELISA assays were performed using 16 biotinylated overlapping peptides spanning the HMGB1 protein from amino acid 1 to 215 as follows, maxisorp microtiter plate was coated with 2 μg/ml of NeutroAvidin (Pierce) overnight at 4° C. After washing and blocking with 1% BSA in PBS, the biotinylated peptides were individually added into the avidin coated wells and incubated for 30 min at room temperature. The serial diluted antibody G4, S16 and S6 at the initial concentration at 10 μg/ml were then transferred into the wells followed by adding mouse anti human IgG-HRP conjugate (Pierce). Detection was accomplished by adding 50 μl of tetramethylbenzidine (TMB) substrate (KPL) and the absorbance was read at […]. The peptides used were amino acids: 46-63; 61-78; 76-93; 91-108; 106-123; 136-153; 151-168; 166-183; 179-185; 181-198; and 196-215.

[1] = system: native activated HMG1 stimulated IL-6 release from human PBMCs; assay: Inhibition of cytokine release from PBMCs, native activated HMG1; type: cell-based
Experimental: Inhibition of Cytokine Release: Human peripheral blood mononuclear cells (PBMCs) were isolated from the peripheral blood of healthy volunteers by a density gradient centrifugation. Freshly drawn heparinized whole blood was mixed with two volume of PBS. The diluted blood was gently layered on the surface of Histopaque-1077 (Sigma-Aldrich) and centrifuged at 400×g, at RT for 30 minute. PBMCs were collected from the interface between the plasma and the density gradient solution. After washing in PBS 3×, the purified PBMCs were resuspended in RPMI-1640 medium (GIBCO BRL) containing 100 U/ml penicillin, 100 μg/ml streptomycin and […] β-mercaptoethanol. 1×10^5 of cells was added in each well of 96-well cell culture plates.
The PBMCs were incubated for two hours at 37° C. with 5% CO2. recombinant HMG1, at 4 μg/ml, or native activated HMG1 from 2.4×10^5 LPS stimulated THP-1 cells, and different concentrations of human anti-HMGB-1 monoclonal antibodies, a RAGE-FC fusion protein or an HMG1 A-box-Fc fusion protein were added into each well. The culture media was supplemented with 8 U/ml (1 μg/ml) Polymyxin B sulphate (Sigma-Aldrich) to inhibit potential endotoxin. PBMCs from the same donor without stimulation with HMG1 were used as controls. The cell-free culture media were harvested after 14 hours and stored at −20° C.
The culture media were analyzed for inflammatory cytokines using Beadlyte human multi-cytokine flex kit from Upstate by Luminex 100 (Luminex Corp.). Proinflammatory cytokines TNF-α, IL-6, IL-1β and IL-12 (p40) were measured for cells stimulated with recombinant HMG1. In addition, TNF-α, IL-6, IL-1β and IL-8 were measured for cells stimulated with native activated HMG1.
Cytokine release data is presented as mean of triplicates±standard deviations. IC50 for anti-HMGB1 monoclonal antibody is defined as the concentration of antibody required yielding one-half maximal inhibition of the cytokine release from PBMCs stimulated by HMGB1. It was calculated by PRISM program.

[2] = system: passive CIA mouse model of arthritis; assay: Passive collagen-induced arthritis (CIA) mouse model; type: in vivo; settings: percent protection, isotype control subtracted
Experimental: Induction of Passive Collagen Induced Arthritis (CIA): To establish an arthritis model six-eight week old male DBA/1J mice (Jackson Labs, Bar Harbor, Me.) were used. Generally 5-8 mice per group are used, On day 0, mice were immunized with 2 mg/mouse of anti-collage mAb cocktail (Chemicon # ECM1100, 10 mg/ml) intravenously, i.v. at tail. Mice were subsequently injected with 50 μg LPS/mouse, i.p. on day 3. Each experiment had several groups of animals as follows: groups A-E in experiment 1, groups G-J in experiment 2 and groups L-N). An additional group of mice (groups F, K and O) were untreated as normal controls.
Monitoring Disease: Beginning at day 0 all animals were observed daily to assess the status of the disease in their paws, which was done by assigning a qualitative clinical score to each of the paws. Every day, each animal has its 4 paws scored according to its state of clinical disease. The scoring is done by two observers, with at least one blinded. In addition, each mouse is weighed, to follow body weight changes, at the same time the paws are scored (see FIGS. 6A and 6D)
The grading scale for the 4 lateral digits of each paw are graded as involved or not involved, i.e., 1 or 0. For example, a maximally involved left rear paw would be scored: ankle=3, midfoot=3, digits=4 (clinical score=10 units) We would repeat this for each paw and sum the scores. […]

Row | Molecule | detailed peptide mapping / domain recognized (HMG1 peptides) | block of IL-6 release induced by native activated HMG1 [1] | in vivo CIA passive [2] [%]
1 | B1 | recognizes the HMG1 A-Box | able to block IL-6 released induced by native activated HMG1 | 
2 | B2 |  | less effective | 
3 | B3 | strongest binding to the B-box peptide 91-108 with lesser binding to peptides 166-183 and 179-186; also recorded: binds the B-box peptide 91-108 and to a lesser extent peptides 166-183 and 179-186 | able to block IL-6 released induced by native activated HMG1 | 0
4 | B4 |  | able to block IL-6 released induced by native activated HMG1 | 
5 | B5 |  |  | 0
